Patent US20160108118A1 (METABOLIC ENGINEERING LABORATORIES, published 2016)

T1: Human CXCL10-His (human, UniProt P02778 22-98)
T1 construct: also called hCXCL10; recombinant human CXCL10 protein; not shown: His tag (named CXCL10-His)
T1 sequence (looked up): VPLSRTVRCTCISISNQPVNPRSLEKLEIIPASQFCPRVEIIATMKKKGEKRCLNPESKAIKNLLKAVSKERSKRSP


Experiments:
Human CXCL10-His [1] = target: T1, Human CXCL10-His; experiment: phage ELISA, CXCL10/a-myc
Experimental: Two types of antigens such as CXCL10 and α-myc were put into a 96-well immunoplate at 100 ng per well and coated with a coating buffer at 4° C. for 16 hours, and wells were blocked with skim milk (4%) dissolved in PBS. Each well was washed with 0.2 ml of PBS-Tween20 (0.05%), and the monoclonal scFv-phages obtained by the third panning (each 100 scFv-phage) were added at 100 μl per well, and allowed to be reacted at room temperature for 2 hours. Each well was washed again with 0.2 ml of PBS-Tween20 (0.05%) four times, and a secondary antibody, anti-M13-HRP, was diluted at 1/2000 and allowed to be reacted at room temperature for 1 hour. Each well was washed with 0.2 ml of PBS-Tween20 (0.05%) and allowed to develop a color to measure an absorbance at 490 nm.

Human CXCL10-His [2] = target: T1, Human CXCL10-His; experiment: phage ELISA
[3] = target: T2, His (control coat of Table 2); experiment: phage ELISA
T2 construct: Not explained in the text

[4] = target: T3, α-myc (anti-myc antibody coated as second antigen); experiment: phage ELISA
T3 construct: Coated at 100 ng per well beside CXCL10 in the phage ELISA; in effect a control of scFv display; also called a-myc

Human CXCL10-His [5] = target: T1, Human CXCL10-His; experiment: ELISA, IgG titrated from 50 nM on coated CXCL10
Experimental: Specifically, ELISA was carried out by coating a recombinant human CXCL10 protein with a coating buffer at 100 ng per well in a 96-well immunoplate at 4° C. for 16 hours, and a reaction in each well was blocked with skim milk (4%) dissolved in PBS. 0.2 ml of PBS-Tween20 (0.05%) was added to wash each well, monoclonal antibodies were sequentially diluted from 50 nM by ½, added at 100 μl each to an antigen-coated plate, and allowed to be reacted at room temperature for 2 hours. 0.2 ml of PBS-Tween20 (0.05%) was added again to wash each well three times, and a secondary antibody, anti-human Fc-HRP, was diluted at 1:4000 and allowed to be reacted at room temperature for 50 minutes. The plate was washed with 0.2 ml of PBS-Tween20 (0.05%), and a substrate solution prepared by adding an OPD table to a PC buffer was added to the plate at 100 μl per well to allow color development for 5 minutes, followed by measuring an absorbance at 490 nm using a spectrophotometer. The ELISA result was analyzed using a Graphpad prism ver. 4 software (CA 92037: Graphpad Software Inc., USA).

Binder	Ratio (Human CXCL10-His [1])	OD490 (Human CXCL10-His [2])	OD490 [3]	OD490 [4]	Kd (Human CXCL10-His [5]) [pM]
scFv-phage clone 9E (scFv) QVQLVESGGGVVQPGRSLRLSCAASGFTFSSYGMHWVRQAPGKGLEWVAVISYDGNNKYYVDSVKGRFTISRDNSKNTLYLQMNSLRSEDTAVYYCARDSGSYLDWYFDLWGRGTLVTVSSQPPSVSVAPGKTARIACGGGNIGDKSVHWYQQKPGQAPVLVIFYDSDRPSGIPKRLSGSNSGNTATLTISRVEAGDEGDYYCQVWDSSSDRPVFGGGTKLTVLG	1.48	2.96	–	–	–
scFv-phage clone 10D (scFv) scFv: QVQLVQSGGGVVQPGRSLRLSCAASGFTFSSYGMHWVRQAPGKGLEWVAVISYDGSNKYYADSVKGRFTISRDNSKNTLYLQMNSLRSEDTAVYYCARDKRAAFDIWGQGKMVTVSSGLGGLGGGGSGGGGSGGSSGVGSSYELTQAPSLSVSPGQTANIICSGDNLRTKYVSWYQQKPGQSPLLVIYQDTRRPSGIPARFSGSNSGNTATLTISGTQTERESTYYCMTWDVDTTSMIFGGGTKLTVL	0.945	2.85	0.178	–	–
scFv-phage clone 12D (scFv) QVQLVQSGGGVVQPGRSLRLSCVASAFTFSRYGMHWVRQAPGKGLEWVALISYDGSSEYYADSVKGRFNISRDNSKNTVYLQMNSLRAEDTAVYYCVKDGLAAKLGHWGQGTLVTVSSQAPSLSVSPGQTANIICSGDNLRTKYVSWYQQKPGQSPLLVIYQDTRRPSGIPARFSGSNSGNTATLTISGTQTERESTYYCMTWDVDTTSMIFGGGTKLTVLG	3.4	3.02	–	–	–
scFv-phage clone 10E (scFv, also called E10 scFv) scFv: QVQLVQSGGGVVQPGRSLRLSCAASGFTFNSYGMHWVRQAPGKGPEWVAVISYDGNSKYYADSVKGRFTISRDNSKTTLYLQMNSLRSEDTAVYYCARDSGSYLDWYFDLWGRGTLVTVSSGLGGLGGGGSGGGGSGGSSGVGSQFVLTQPPSVSGAPGQRVTISCTGSRSNFGAGHDVHWYQQLPGTAPKLLIYGNNNRPSGVPDRFSGSKSGTSASLAITGLQAEDEADYYCQSYDSRLGVVFGGGTKLTVL	9.95	3.05	0.051	0.307	–
anti-CXCL10 antibody 9E (whole IgG) (antibody, V domains shown, Whole-form IgG) VH: QVQLVESGGGVVQPGRSLRLSCAASGFTFSSYGMHWVRQAPGKGLEWVAVISYDGNNKYYVDSVKGRFTISRDNSKNTLYLQMNSLRSEDTAVYYCARDSGSYLDWYFDLWGRGTLVTVSS VL: QPPSVSVAPGKTARIACGGGNIGDKSVHWYQQKPGQAPVLVIFYDSDRPSGIPKRLSGSNSGNTATLTISRVEAGDEGDYYCQVWDSSSDRPVFGGGTKLTVLG	–	–	–	–	6.1
anti-CXCL10 antibody 10E (whole IgG) (antibody, V domains shown, also called E10) VH: QVQLVQSGGGVVQPGRSLRLSCAASGFTFNSYGMHWVRQAPGKGPEWVAVISYDGNSKYYADSVKGRFTISRDNSKTTLYLQMNSLRSEDTAVYYCARDSGSYLDWYFDLWGRGTLVTVSS VL: QPPSVSGAPGQRVTISCTGSRSNFGAGHDVHWYQQLPGTAPKLLIYGNNNRPSGVPDRFSGSKSGTSASLAITGLQAEDEADYYCQSYDSRLGVVFGGGTKLTVLG	–	–	–	–	7
anti-CXCL10 antibody 12D (whole IgG) (antibody, V domains shown, Whole-form IgG) VH: QVQLVQSGGGVVQPGRSLRLSCVASAFTFSRYGMHWVRQAPGKGLEWVALISYDGSSEYYADSVKGRFNISRDNSKNTVYLQMNSLRAEDTAVYYCVKDGLAAKLGHWGQGTLVTVSS VL: QAPSLSVSPGQTANIICSGDNLRTKYVSWYQQKPGQSPLLVIYQDTRRPSGIPARFSGSNSGNTATLTISGTQTERESTYYCMTWDVDTTSMIFGGGTKLTVLG	–	–	–	–	4.7
